Laboratory results: patent US11976099B2, “Compositions and methods for treatment of bone associated diseases” (THE NATIONAL INSTITUTE FOR BIOTECHNOLOGY IN THE NEGEV LTD., priority 2016, dated 2024)

Columns and labels:
[1] = system: human peripheral blood CD14+ monocytes differentiating to osteoclasts; assay: Osteoclast differentiation assay of human CD14+ monocytes (TRAP staining); assay type: cell-based; conditions: Example 14, CD14+ cells; for osteoclast formation: 50, 250, 1000 nM with M-CSFWT and RANKL
Text: Differentiation assay—BMMs and CD14+ cells were obtained and grown as described above. The plates containing the monocytes were washed with PBS; the cells were detached using a cell scraper for BMMs or Accutase (Biological industries, Israel) for CD14^+; and 2×10^4 BMMs or 1×10^4 CD14^+ cells were transferred to each well in a 96-well plate. Osteoclast differentiation was induced as described in the ‘phosphorylation assay’ section. To determine the influence of M-CSFC31S and the M-CSFC31S,M27R on osteoclast differentiation, the proteins were added to the differentiation medium (with M-CSF and RANKL) in different concentrations (50 nM, 1 μM and 5 μM for BMMs and 50 nM, 250 nM and 1 μM for CD14^+). To determine the influence of human M-CSFWT on the differentiation, it was added to the cells in different concentrations (50 nM 1 μM and 5 μM) without adding murine M-CSFWT. Once the cells were fully differentiated, they were fixed with 4% paraformaldehyde and stained using the tartrate-resistant acid phosphatase (TRAP) staining kit (Sigma-Aldrich, USA) according to the manufacturer's protocol. As the positive control, cells were incubated with M-CSF and RANKL without inhibitors, and the negative control was comprised of cells that were incubated in differentiation medium without RANKL. […] Cells in each image were counted in a double-blind manner, and the number of nuclei in the osteoclasts was determined using ImageJ software. For the positive control of BMMs, an average of 28.33 osteoclasts and 135 nuclei per well were counted. For CD14^+ positive control, the average numbers of osteoclasts and nuclei were 14.5 and 75, respectively, per well. The results for each parameter were normalized to the positive control values.
In light of the above-described decrease in phosphorylation, it was hypothesized that incubation of M-CSFC31S,M27R with differentiating monocytes would result in decreased formation of osteoclasts. To test this premise, either BMMs or CD14^+ cells were incubated with murine or human M-CSFWT (20 ng/ml), respectively, and murine RANKL (20 ng/ml) together with M-CSFC31S and M-CSFC31S,M27R at concentrations of 50 and 1000 and 5000 nM for BMMs and 50, 250, 1000 nM for CD 14^+ cells. The cells were allowed to differentiate for 96 h or until they reached full differentiation. In BMMs incubated with M-CSFC31S, osteoclasts formed rapidly, and therefore they differentiated only for 72 h. Then, the cells were stained with a tartrate-resistant acid phosphatase (TRAP) staining kit (FIGS. 19A, B). […] This inhibition of differentiation behavior was observed also for M-CSFWT.

human c-FMS = human c-FMS (Homo sapiens, UniProt P07333); assay: c-FMS phosphorylation assay in CD14+ monocytes (western blot); assay type: cell-based; design: host or cells: human peripheral blood CD14+ monocytes; conditions: CD14+ cells; 0.5 nM human M-CSFWT + 100 nM variant
Procedure: Phosphorylation assay—The experiment was performed on two cell types, BMMs and human peripheral blood CD14^+ monocytes, as follows: (i) BMMs from wild-type C57BL6 mice were purified by flushing the bone marrow from the femur and tibia as previously described (Levaot, N., Simoncic, P. D., Dimitriou, I.D., Scoffer, A., La Rose, J., Ng, A. H. M. et al. (2011) J. Clin. Invest. 121, 3244-3257). The cells were treated with ACK red cells lysis buffer (ThermoFisher Scientific, USA) and grown in complete α-MEM growth medium (Sigma-Aldrich, USA) containing 10% fetal bovine serum (FBS) (selected to not contain LPS to prevent macrophage differentiation), penicillin, streptomycin and L-glutamine. Recombinant murine M-CSF was added at a concentration of 40 ng/ml (Peprotech, Israel) for three days at 37° C. to induce adhesion and proliferation of monocytes. Then, 7×10^5 cells were transferred into a 6-well plate with complete α-MEM and 20 ng/ml murine M-CSF and RANKL (R&D Systems, USA) for 48 h. (ii) CD 14^+ monocytes (Lonza, Switzerland) were grown in complete α-MEM medium for five days in the presence of human M-CSF (20 ng/mL). […] The images were quantified using ImageJ. The quantified intensity values of the phosphorylated c-FMS for each sample were divided by the total c-FMS intensity, and then by the β-actin expression intensity. […]

Sequence of human c-FMS (P07333 20-972): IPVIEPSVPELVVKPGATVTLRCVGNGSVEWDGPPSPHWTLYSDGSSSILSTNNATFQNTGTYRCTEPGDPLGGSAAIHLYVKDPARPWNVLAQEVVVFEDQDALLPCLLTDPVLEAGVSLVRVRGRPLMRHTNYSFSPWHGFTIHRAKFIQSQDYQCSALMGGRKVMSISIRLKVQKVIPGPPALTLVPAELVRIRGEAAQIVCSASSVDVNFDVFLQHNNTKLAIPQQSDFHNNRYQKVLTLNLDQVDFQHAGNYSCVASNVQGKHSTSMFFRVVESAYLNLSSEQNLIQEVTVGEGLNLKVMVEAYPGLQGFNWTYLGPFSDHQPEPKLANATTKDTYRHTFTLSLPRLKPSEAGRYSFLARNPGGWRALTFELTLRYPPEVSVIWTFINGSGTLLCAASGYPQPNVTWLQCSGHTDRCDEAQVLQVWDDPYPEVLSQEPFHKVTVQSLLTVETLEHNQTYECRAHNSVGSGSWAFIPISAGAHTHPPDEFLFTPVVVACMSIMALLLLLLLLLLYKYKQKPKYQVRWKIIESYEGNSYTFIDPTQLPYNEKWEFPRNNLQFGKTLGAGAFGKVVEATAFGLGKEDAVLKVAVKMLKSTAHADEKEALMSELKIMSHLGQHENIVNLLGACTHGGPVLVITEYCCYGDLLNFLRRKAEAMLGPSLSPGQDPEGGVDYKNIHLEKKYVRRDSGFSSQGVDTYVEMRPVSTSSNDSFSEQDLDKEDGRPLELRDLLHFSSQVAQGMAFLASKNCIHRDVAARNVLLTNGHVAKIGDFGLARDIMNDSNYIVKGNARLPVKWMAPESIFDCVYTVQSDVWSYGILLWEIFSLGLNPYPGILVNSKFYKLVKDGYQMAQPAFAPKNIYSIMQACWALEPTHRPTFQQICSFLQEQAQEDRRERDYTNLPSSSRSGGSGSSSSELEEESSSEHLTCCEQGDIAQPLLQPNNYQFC

Row | Molecule | number of osteoclasts and number of nuclei [1] | osteoclast formation [1] | c-FMS phosphorylation level (human c-FMS)
1 | M-CSFM: 158 amino acid M-CSF with cysteine at position 31 replaced by serine (SEQ ID NO: 2) (protein) EEVSEYCSHMIGSGHLQSLQRLIDSQMETSSQITFEFVDQEQLKDPVCYLKKAFLLVQDIMEDTMRFRDNTPNAIAIVQLQELSLRLKSCFTKDYEEHDKACVRTFYETPLQLLEKVKNVFNETKNLLDKDWNIFSKNCNNSFAECSSQGHERQSEGS | the opposite result | highly accelerated in the two lower concentrations | acted as an agonist, inducing phosphorylation
2 | M-CSFC31S,M27R: M-CSF double mutant containing both C31S and M27R; monomeric, monospecific c-FMS antagonist (protein) EEVSEYCSHMIGSGHLQSLQRLIDSQRETSSQITFEFVDQEQLKDPVCYLKKAFLLVQDIMEDTMRFRDNTPNAIAIVQLQELSLRLKSCFTKDYEEHDKACVRTFYETPLQLLEKVKNVFNETKNLLDKDWNIFSKNCNNSFAECSSQGHERQSEGS | a decrease in both parameters, in a dose-dependent manner | significantly inhibited, in a dose-dependent manner | decreased phosphorylation of c-FMS
